Experiments:
[1] = target: T1, Aβ42 oligomers (soluble) (UniProt P05067 672-713); experiment: BLI; optimized assay: Protein A sensors loaded to near-saturation with soluble TREM‐Fc‐V5 proteins in PBS; ligand in serial dilution (five concentrations); dissociation in PBS; 1:1 interaction model; conditions: both partners purified
T1 construct: amyloid‐β 1-42 (Aβ42), cut product of the amyloid precursor protein APP; Oligomeric assembly; also called Aβ oligomers; oligomeric Aβ; source: oligomers prepared as described (Stine et al, 2003)

[2] = target: T2, Aβ42 fibrils (fibrillar Aβ42) (UniProt P05067 672-713); experiment: pull-down; Aβ42 fibril pull-down: conditioned media with 5 mM EDTA incubated with Aβ42 fibrils 1 h at room temperature, fibrils pelleted at 18,000 g, washed with PBS; Western blot with V5 antibody; conditions: one partner purified
T2 construct: amyloid‐β 1-42 (Aβ42), cut product of the amyloid precursor protein APP; Fibrillar assembly of the peptide; also called fAβ; Aβ fibrils; source: Pinotsi et al, 2016

[3] = target: T3, Aβ42 monomers (UniProt P05067 672-713); experiment: ELISA; plates coated overnight at 4°C with purified soluble TREM‐Fc proteins in 100 mM NaCO3 pH 11, blocked (Block Ace), incubated with Aβ42 monomers, oligomers or fibrils 1 h at room temperature; Aβ detected with 4G8‐HRP, OD450; conditions: both partners purified
T3 construct: amyloid‐β 1-42 (Aβ42), cut product of the amyloid precursor protein APP; also called monomeric Aβ; source: monomers prepared as described (Stine et al, 2003)

B1: soluble mouse Treml1‐Fc (soluble ectodomain) (Fc fusion, UniProt Q8K558 21-175, looked up)
chain: DSHPEVLQAPVGSSILVQCHYRLQDVRALKVWCQFLQEGCHPLVTSAVDRRAPGNGRIFLTDLGGGLLQVEMVTLQEEDTGEYGCVVEGAAGPQTLHRVSLLVLPPVPGPREGEEAEDEKETYRIGTGSLLEDPSLDPSASAGPHEFRRRENSIP
notes: Treml1, mouse, soluble ectodomain; also called sTreml1‐Fc; source: HEK293T, transfected, purified from conditioned media (anti-human IgG Fc agarose beads)
B1: binds [1].

B2: soluble mouse Trem2‐Fc (soluble ectodomain) (Fc fusion, UniProt Q99NH8 19-171, looked up)
chain: LNTTVLQGMAGQSLRVSCTYDALKHWGRRKAWCRQLGEEGPCQRVVSTHGVWLLAFLKKRNGSTVIADDTLAGTVTITLKNLQAGDAGLYQCQSLRGREAEVLQKVLVEVLEDPLDDQDAGDLWVPEESSSFEGAQVEHSTSRNQETSFPPTS
notes: Trem2, mouse, soluble ectodomain; also called sTrem2‐Fc; sTrem2‐FC; source: HEK293T, transiently transfected; conditioned media; purified from conditioned media (anti-human IgG Fc agarose beads)
B2: binds [2]; binds [1]; binds [3].

B3: soluble TREML1‐Fc (human, soluble ectodomain) (Fc fusion, UniProt Q86YW5 16-162, looked up)
chain: QGIVGSLPEVLQAPVGSSILVQCHYRLQDVKAQKVWCRFLPEGCQPLVSSAVDRRAPAGRRTFLTDLGGGLLQVEMVTLQEEDAGEYGCMVDGARGPQILHRVSLNILPPEEEEETHKIGSLAENAFSDPAGSANPLEPSQDEKSIP
notes: TREML1, human, soluble ectodomain; also called sTREML1‐Fc; source: HEK293T, transiently transfected; conditioned media; purified from conditioned media (anti-human IgG Fc agarose beads)
B3: binds [1].
